The target in the test is wild-type αIIbβ3 on HEK 293 cells (Homo sapiens, UniProt P08514;P05106). The test is described as follows: flow cytometry on cells. On the technique in general: A flow cytometer gives signals particle by particle.

B1: murine mAb 7E3 (antibody, V domains shown)
VH: EVQLQQSGTVLARPGASVKMSCEASGYTFTNYWMHWVKQRPGQGLEWIGAIYPGNSDTSYIQKFKGKAKLTAVTSTTSVYMELSSLTNEDSAVYYCTLYDGYYVFAYWGQGTLVTVSA
VL: EIVLTQSPVTLSVTPGDSVSLSCRASRDISNNLHWFQQTSHESPRLLIKYASQSMSGIPSRFSGSGSGTDFTLSINSVETEDFGMYFCQQTNSWPYTFGGGTKLEIK
In the case of B1, the binding result is listed as “binds”.

B2: abciximab (Fab, V domains shown)
VH: B1 VH
VL: B1 VL
With B2, the binding result is reported as “binds”.

Source of the values: PMC7047619 (Arteriosclerosis, thrombosis, and vascular biology, 2020).
